Measurements taken from publication PMC6778065.

What was measured:
[1] = target: Tau (endogenous, primary neurons) (UniProt P19332); experiment: proximity ligation assay, high-content screen; conditions: reference: DMSO-treated neurons; sites T348
[2] = target: Tau (endogenous, rat primary hippocampal neurons) (rat (endogenous in primary hippocampal neurons)) (UniProt P19332); experiment: proximity ligation; PLA in fixed rat primary hippocampal neuronal cultures (DIV7, 14, 21; lentiviral shBIN1 or overexpression at DIV8, read at DIV14; compound screen incl. Cyclosporin A and U0126 at DIV21); primary antibodies BIN1-99D (mouse) and Tau (rabbit); PLA volume or PLA:Tau ratio
[3] = target: BIN1 (endogenous, primary neurons) (UniProt O08839); experiment: proximity ligation assay, high-content screen; conditions: reference: DMSO-treated neurons; sites T231

Sequence of BIN1iso1 phosphomimetic T348E, overexpressed in primary neurons (O08539 whole entry, stated change not applied): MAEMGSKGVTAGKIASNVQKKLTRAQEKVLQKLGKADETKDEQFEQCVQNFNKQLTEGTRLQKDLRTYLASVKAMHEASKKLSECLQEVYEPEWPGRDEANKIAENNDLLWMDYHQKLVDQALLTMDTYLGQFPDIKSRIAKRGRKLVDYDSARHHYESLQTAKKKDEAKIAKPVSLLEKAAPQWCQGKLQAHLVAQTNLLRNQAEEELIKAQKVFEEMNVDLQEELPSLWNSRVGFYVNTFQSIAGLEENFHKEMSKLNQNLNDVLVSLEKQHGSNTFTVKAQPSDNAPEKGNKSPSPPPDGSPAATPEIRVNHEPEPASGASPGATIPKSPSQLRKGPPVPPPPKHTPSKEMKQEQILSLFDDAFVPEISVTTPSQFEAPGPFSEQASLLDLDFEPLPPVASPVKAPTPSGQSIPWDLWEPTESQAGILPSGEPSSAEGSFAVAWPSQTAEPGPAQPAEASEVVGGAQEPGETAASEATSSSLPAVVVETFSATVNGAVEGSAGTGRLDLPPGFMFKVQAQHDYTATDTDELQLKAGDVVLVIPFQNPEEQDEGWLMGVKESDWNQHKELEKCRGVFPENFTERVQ
Sequence of Tau (endogenous, rat primary hippocampal neurons) (rat (endogenous in primary hippocampal neurons)) (P19332 other isoform, or with tags, fused parts or gaps): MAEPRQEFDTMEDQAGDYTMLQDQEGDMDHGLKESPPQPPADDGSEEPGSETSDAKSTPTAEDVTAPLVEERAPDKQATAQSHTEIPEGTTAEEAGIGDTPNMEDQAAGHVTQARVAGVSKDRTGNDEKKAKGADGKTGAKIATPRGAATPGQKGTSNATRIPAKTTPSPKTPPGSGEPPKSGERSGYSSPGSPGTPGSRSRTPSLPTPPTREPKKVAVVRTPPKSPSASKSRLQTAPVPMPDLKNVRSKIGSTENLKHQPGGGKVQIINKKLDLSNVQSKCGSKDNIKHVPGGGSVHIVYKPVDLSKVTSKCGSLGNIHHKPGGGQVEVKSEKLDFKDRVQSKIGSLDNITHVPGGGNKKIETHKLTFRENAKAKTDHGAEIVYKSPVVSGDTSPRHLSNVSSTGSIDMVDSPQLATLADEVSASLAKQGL

## BIN1 (endogenous, primary neurons) (from UniProt O08839) Cyclosporin A-treated neurons (calcineurin inhibitor)
[1]
  other: percent increase of PLA:Tau ratio: 42.6%

## BIN1iso1 phosphomimetic T348E, overexpressed in primary neurons (from UniProt O08539-1 1-588) (natural protein)
[2]
  fold PLA volume against BIN1iso1 (after normalization with BIN1 immunofluorescence): 2.1 fold

## Tau (endogenous, primary neurons) (from UniProt P19332) U0126-treated neurons (MEK inhibitor)
[3]
  other: percent decrease of PLA:Tau ratio: 36.2%
